Test results taken from patent publication US20210230266A1 (SINGAPORE HEALTH SERVICES PTE, published 2021).

T1: Mouse IL-11 (mouse, UniProt P47873 22-199, limits assumed)
T1 construct: also called murine IL-11; recombinant murine IL-11
T1 sequence (looked up): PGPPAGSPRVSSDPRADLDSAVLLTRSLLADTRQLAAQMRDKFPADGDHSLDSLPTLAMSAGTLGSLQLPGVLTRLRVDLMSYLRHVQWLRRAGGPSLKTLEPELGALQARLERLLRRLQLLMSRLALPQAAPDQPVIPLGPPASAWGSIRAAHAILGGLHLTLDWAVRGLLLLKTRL

T2: Human IL-11 (human, UniProt P20809 22-199)
T2 construct: Recombinant human IL-11 (GenScript Cat. No. Z03108-1) or IL-11 secreted by human cells; the mature form is said to have 178 residues; also called recombinant human IL-11; endogenously produced IL-11
T2 sequence: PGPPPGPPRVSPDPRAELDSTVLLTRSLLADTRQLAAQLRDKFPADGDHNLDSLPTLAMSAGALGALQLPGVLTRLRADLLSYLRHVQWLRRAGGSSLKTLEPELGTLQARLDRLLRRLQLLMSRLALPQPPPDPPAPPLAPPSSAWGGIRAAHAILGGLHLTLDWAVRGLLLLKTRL


What was measured:
Mouse IL-11 = target: T1, Mouse IL-11; assay: ELISA
Protocol: (§1) The soluble scFv were produced by recombinant expression in E. coli, and analysed for their ability to bind to human IL-11 and murine IL-11 by ELISA. Briefly, the respective antigen was coated to wells of an ELISA plate, the cell culture supernatant containing the respective scFv was added at a 1:2 dilution, and binding was detected.

Human IL-11 [1] = target: T2, Human IL-11; assay: ELISA
Protocol: as §1

Human IL-11 [2] = target: T2, Human IL-11; assay: ELISA on coated recombinant human IL-11 (100 ng/well), scFv-Fc
Protocol: The light chain shuffled anti-IL-11 antibodies were analysed to determine the EC50 for binding to human IL-11 by ELISA according to standard methods. Briefly, wells of microtiter plates were coated with recombinant human IL-11 (100 ng/well), scFv-Fc comprising the VH and VL domains of the clones were added in a dilution series and antibody binding was detected using a polyclonal antibody detection system.

Human IL-11 [3] = target: T2, Human IL-11; assay: cell-based or functional assay

Binder | mIL11 - average signal (Mouse IL-11) | hIL11 - average signal (Human IL-11 [1]) | EC50 (Human IL-11 [2]) | MMP2 production, Experiment 1 (human atrial fibroblasts + TGFB1) (Human IL-11 [3]) | MMP2 production, Experiment 2 (human atrial fibroblasts + TGFB1) (Human IL-11 [3])
YU100-D07 (antibody) QVQLVESGGGVVQPGRSLRLSCAASGFTFSSYAMHWVRQAPGKGLEWVAVISYDGSNKYYADSVKGRLTISRDNSKNTLYLQMNSLRAEDTAVYYCARIMGYDYGDYDVVDYWGQGTLVTVSSGSASAPKLEEGEFSEARVQSALTQPRSVSGSPGQSVTISCTGTSGDVGTYDYVSWYQQHPGKAPKLMIYDVSKRPSGVPDRFSGSKSGNTASLTISGLQAEDEADYYCNSYAGSYTWVFGGGTKLTVLGQPKTAPSVTLFPPSS | 0.322 | 0.246 |  |  | 
YU100-G10 (antibody) QVQLVQSGGGVVQPGRSLRLSCAASGFTFSSYGMHWVRQAPGKGLEWVAVISYDGSNKYYADSVKGRFTISRDNSKNTLYLQMNSLRAEDTAVYYCAKIGATDPLDYWGQGTLVTVSSGSASAPKLEEGEFSEARVQSALTQPASVSGSLGQSITMSCTGTRRDVGGYDFVSWYQQYPGKAPKLIIYDVSNRPSGVSNRFTGSKSGNTASLTISGLQAEDEADYYCCSYAGTYTWVFGGGTKVTVL | 0.404 | 0.262 | 0.034 µg/mL | 54 ng/mL | 45.4 ng/mL
YU100-F07 (antibody) QVQLVESGGGVVQPGRSLRLSCAASGFTFSSYAMHWVRQAPGKGLEWVAVISYDGSNKYYADSVKGRFTISRDNSKNTLYLQMNSLRAEDTAVYYCARIMGYDYGDYDVVDYWGQGTLVTVSSGSASAPKLEEGEFSEARVQSALTQPRSVSVSPGQSVTISCTGTSSDVGGYEYVSWYQQHPGKAPKLMIYDVTKRPSGVPDRFSGSKSGNTASLTISGLQGEDAADYYCCSYAGSYTWVFGGGTTVTVL | 0.148 | 0.172 | 0.041 µg/mL | 53.1 ng/mL | 46.6 ng/mL
YU100-E10 (antibody) QVQLVQSGGGVVQPGRSLRLSCAASGFTFSSYGMHWVRQAPGKGLEWVAVISYDGSNKYYADSVKGRFTISRDNSKNTLYLQMNSLRAEDTAVYYCAKIGATDPLDYWGQGTLVTVSSGSASAPKLEEGEFSEARVQSALTQPRSVSGSPGQSVTISCTGTSSDVGGYNYVSWYQQHPGKAPKLMIFDVSQRPSGVPDRFSASKSGNTASLTISGLQAEDEADYYCCSYAGSYTWVFGGGTKLTVL | 0.297 | 0.338 | 0.033 µg/mL | 56.1 ng/mL | 47 ng/mL
YU100-E08 (antibody) QVQLVQSGGGVVQPGRSLRLSCAASGFTFSSYAMHWVRQAPGKGLEWVAVISYDGSNKYYADSVKGRFTISRDNSKNTLYLQMNSLRAEDTAVYYCARIMGYDYGDYDVVDYWGQGTLVTVSSGSASAPKLEEGEFSEARVQSALTQPRSVSGSPGQSVTISCTGTSSDVGGYNYVSWYQQHPGKAPKLMIYDVSRRPSGVPDRFSGSKSGNTASLTISGLQAEDEADYYCCSYAGNYTWMFGGGTKLTVL | 0.251 | 0.214 | 0.032 µg/mL | 48.2 ng/mL | 59.7 ng/mL
YU100-G11 (antibody) QVQLVESGGGVVQPGRSLRLSCAASGFTFSSYGMHWVRQAPGKGLEWVAVISYDGSNKYYADSVKGRFTISRDNSKNTLYLQMNSLRAEDTAVYYCARIMGYDYGDYDVVDYWGQGTLVTVSSGSASAPKLEEGEFSEARVQSALTQPRSVSGSPGQSVTISCTGTSSDVGGYNYVSWYQQHPGKAPKLTLYDVGKRPSGVPDRFSGSKSGNTASLTISGLQAEDEADYYCCSYAGGYTWVFGGGTKVTVV | 0.507 | 0.498 |  |  | 
YU100-E09 (antibody) QVQLVESGGGVVQPGRSLRLSCAASGFTFSSYAMHWVRQAPGKGLEWVAVISYDGSNKYYADSVKGRFTISRDNSKNTLYLQMNSLRAEDTAVYYCARIMGYDYGDYDVVDYWGQGTLVTVSSGSASAPKLEEGEFSEARVQSALTQPRSVSGSPGQSVTISCTGTSSDVGDYDYVSWYQQHPGKAPKLIIYDVTKRPSGIPDRFSGSKSGNTASLTISGLQAEDEADYYCCSYAGSYTWVFGRGTKLTVL | 0.335 | 0.224 | 0.019 µg/mL | 51.7 ng/mL | 44.4 ng/mL
YU112-G01 (antibody) QVQLVESGGGVVQPGRSLRLSCAASGFTFSSYGMHWVRQAPGKGLEWVAVISYDGSNKYYADSVKGRFTISRDNSKNTLYLQMNSLRAEDTAVYYCAKLSGPNGVDYWGQGTLVTVSSGSASAPKLEEGEFSEARVQSALTQPRSVSGSPGQSVTISCTGTISDVGGYNYVSWYQQHPGKAPKLMIYDVTKRPSGVPDRFSGSKSGNTASLTISGLQAEDEAGYYCSSYAGSYTWVFGGGTELTVL | 0.794 | 0.528 |  | 47.6 ng/mL | 43.8 ng/mL

Now from value to binder:

mIL11 - average signal (Mouse IL-11) | hIL11 - average signal (Human IL-11 [1]) | EC50 (Human IL-11 [2]) | MMP2 production, Experiment 1 (human atrial fibroblasts + TGFB1) (Human IL-11 [3]) | MMP2 production, Experiment 2 (human atrial fibroblasts + TGFB1) (Human IL-11 [3]) | Binder
0.542 | 0.304 |  |  |  | YU100-F05 (antibody) QVQLQQSGGGVVQPGRSLRLSCAASGFTFSSYGMHWVRQAPGKGLEWVAVISYDGSNKYYADSVKGRFTISRDNSKNTLYLQMNSLRAEDTAVYYCAKIGATDPLDYWGQGTLVTVSSGSASAPKLEEGEFSEARVQAVLTQPASVSGSPGQSITISCTGTSSDIGGYNYVSWYQQHPGTAPKLMIYDVSSRPSGVSNRFSGSKSGNTASLTISGLQAEDEADYYCCSYAGSYTWVFGGGTKMTVL
0.481 | 0.16 |  |  |  | YU100-F06 (antibody) QVQLVESGGGVVQPGRSLRLSCAASGFTFSSYGMHWVRQAPGKGLEWVAVISYDGSNKYYADSVKGRFTISRDNSKNTLYLQMNSLRAEDTAVYYCARIMGYDYGDYDVVDYWGQGTLVTVSSGSASAPKLEEGEFSEARVQSALTQPRSVSGSPGQSVTISCTGSSSDVGGYNFVSWYRQHPGEAPKLVIFDVNKRPSGVPDRFSGSKSGNTASLTISGLQTEDEADYFCCSYAGGYTWVFGGGTKVTVV
0.898 | 0.593 |  |  |  | YU112-C09 (antibody) QVQLVQSGGGVVQPGRSLRLSCAASGFTFGSYGMHWVRQAPGKGLEWVAVISYDGSNKYYADSVKGRFTISRDNSKNTLYLQMNSLRAEDTAVYYCAKGSYYFDYWGQGTLVTVSSGSASAPKLEEGEFSEARVETTLTQSPATLSVSPGERATLSCRASQSFSSSYLAWYQQKPGQAPRLLIYGASRRAPGIPDRFSGSGSGTDFSLTISRLEPEDFAVYYCQQSSTSPTWAFGRGTKVEVK
0.395 | 0.319 | 0.027 µg/mL | 44.5 ng/mL | 37.6 ng/mL | YU100-F11 (antibody, V domains shown, light chain-shuffled human anti-IL-11 clone) VH: QVQLVESGGGVVQPGRSLRLSCAASGFTFSSYGMHWVRQAPGKGLEWVAVISYDGSNKYYADSVKGRFTISRDNSKNTLYLQMNSLRAEDTAVYYCAKIGATDPLDYWGQGTLVTVSS VL: QSALTQPASVSGSPGQSITISCTGSSSDVAGYNYVSWYQQHPGKAPKLMIYDVTKRPSGVPDRFSGSKSGNTASLTISGLQAEDEADYYCCSYAGSYTWVFGGGTQLTVLG
0.293 | 0.21 |  |  |  | YU100-B09 (antibody, V domains shown) VH: QVQLVQSGGGVVQPGRSLRLSCAASGFTFSSYGMHWVRQAPGKGLEWVAVISYDGSNKYYADSVKGRFTISRDNSKNTLYLQMNSLRAEDTAVYYCAKIGATDPLDYWGQGTLVTVSS
0.247 | 0.193 | 0.023 µg/mL | 52.1 ng/mL | 46.5 ng/mL | YU100-E07 (antibody) QVQLQESGGGVVQPGRSLRLSCAASGFTFSSYGMHWVRQAPGKGLEWVAVISYDGSNRYYADSVKGRFAISRDNSKNTLYLQMNSLRAEDTAVYYCAKIGATDPLDYWGQGTLVTVSSGSASAPKLEEGEFSEARVQSALTQPRSVSGSPGQSVTISCTGTSSDVGGYDYVSWYQQHPGKAPELMIYDVTKRPSGVADRFSGSKSGNTASLTISGLQAEDEADYYCCSYAGRYTWVFGGGTKLTVL
